Test results as given in patent US9708383 (Novo Nordisk, dated 2017).
*1 amine or outer side, *2 acyl side, *3 side chain or, on linkers, in order; H or OH if unused. Where no end group is shown, it is not given here. Side-chain parts run from the residue outwards. [ ]: non-standard residue; d: D form. The star is where a group is joined. Decanoyl(10-(4-HOOC-PhO)) = O=C(O)c1ccc(OCCCCCCCCCC(=O)*)cc1; d(γGlu) = O=C(O)[C@@H](CCC(=O)[*:2])N[*:1]; C16 diacid = O=C(O)CCCCCCCCCCCCCCC(=O)*; γGlu = O=C(O)[C@H](CCC(=O)[*:2])N[*:1]; C12 diacid = O=C(O)CCCCCCCCCCC(=O)*; 13‑carboxytridecanoyl = C14 diacid; AEEA = NCCOCCOCC(=O)O; Aib = CC(C)(N)C(=O)O

Experiments:
[1] = target: T1, human GLP-1 receptor (human, UniProt P43220 24-463); assay: SPA, 2.0% vs 0.005% HSA
T1 construct: whole, on cells; Used as purified membranes of the transfected hamster cells, not whole cells; also called hGLP-1
Protocol: (§1) A shift in the binding affinity, $IC50$, is an indication that the derivative in question binds to albumin, and thereby a prediction of a potential protracted pharmacokinetic profile of the derivative in question in animal models.
(§2) 25 ul (microliter) of test compounds are added to Optiplate. HSA ("high albumin" experiment containing 2% HSA), or buffer ("low albumin" experiment containing 0.005% HSA), was added (50 ul). 5-10 µg protein/sample was added (50 ul) corresponding to 0.1-0.2 mg protein/ml (to be preferably optimised for each membrane preparation). SPA-particles (Wheatgerm agglutinin SPA beads, Perkin Elmer, #RPNQ0001) were added in an amount of 0.5 mg/well (50 ul). […] The plates were sealed with PlateSealer and incubated for 120 minutes at 30° C. while shaking. The plates were centrifuged (1500 rpm, 10 min) and counted in Topcounter.

[2] = target: T1, human GLP-1 receptor; assay: SPA, displacement of 125I-GLP-1(7-36)NH2, 0.005% HSA
Protocol: as §1, §2

Binder | ratio IC50 high HSA/IC50 low HSA [1] | IC50 [2]
H[Aib]EGTFTSDVSK([AEEA-AEEA-γGlu-Decanoyl(10-(4-HOOC-PhO))])YLEGQAAK([AEEA-AEEA-γGlu-Decanoyl(10-(4-HOOC-PhO))])EFIAWLVQGRG [GLP-1 derivative of Example 92: [Aib8,Lys18,Gln34]-GLP-1-(7-37)-peptide] | > 1 | < 1 µM
H[Aib]EGTFTSDVSK([AEEA-AEEA-AEEA-AEEA-γGlu-C16 diacid])YLEEQAVREFIAK([AEEA-AEEA-AEEA-AEEA-γGlu-C16 diacid])LVRGRG-NH2 (N-terminus assumed; SMILES CC[C@H](C)[C@H](NC(=O)[C@H](Cc1ccccc1)NC(=O)[C@H](CCC(=O)O)NC(=O)[C@H](CCCNC(=N)N)NC(=O)[C@@H](NC(=O)[C@H](C)NC(=O)[C@H](CCC(N)=O)NC(=O)[C@H](CCC(=O)O)NC(=O)[C@H](CCC(=O)O)NC(=O)[C@H](CC(C)C)NC(=O)[C@H](Cc1ccc(O)cc1)NC(=O)[C@H](CCCCNC(=O)COCCOCCNC(=O)COCCOCCNC(=O)COCCOCCNC(=O)COCCOCCNC(=O)CC[C@H](NC(=O)CCCCCCCCCCCCCCC(=O)O)C(=O)O)NC(=O)[C@H](CO)NC(=O)[C@@H](NC(=O)[C@H](CC(=O)O)NC(=O)[C@H](CO)NC(=O)[C@@H](NC(=O)[C@H](Cc1ccccc1)NC(=O)[C@@H](NC(=O)CNC(=O)[C@H](CCC(=O)O)NC(=O)C(C)(C)NC(=O)[C@@H](N)Cc1c[nH]cn1)[C@@H](C)O)[C@@H](C)O)C(C)C)C(C)C)C(=O)N[C@@H](C)C(=O)N[C@@H](CCCCNC(=O)COCCOCCNC(=O)COCCOCCNC(=O)COCCOCCNC(=O)COCCOCCNC(=O)CC[C@H](NC(=O)CCCCCCCCCCCCCCC(=O)O)C(=O)O)C(=O)N[C@@H](CC(C)C)C(=O)N[C@H](C(=O)N[C@@H](CCCNC(=N)N)C(=O)NCC(=O)N[C@@H](CCCNC(=N)N)C(=O)NCC(N)=O)C(C)C) | > 1 | < 1 µM
H[Aib]EGTFTSDVSK([AEEA-AEEA-γGlu-γGlu-γGlu-13‑carboxytridecanoyl])YLEEQAVREFIAK([AEEA-AEEA-γGlu-γGlu-γGlu-13‑carboxytridecanoyl])LVRGRG [GLP-1 derivative of Example 102: [Aib8,Lys18,Glu22,Val25,Arg26,Lys31,Arg34]-GLP-1-(7-37)-peptide] | > 1 | < 1 µM
H[Aib]EGTFTSDVSK([AEEA-γGlu-AEEA-13‑carboxytridecanoyl])YLEEQAVREFIAK([AEEA-γGlu-AEEA-13‑carboxytridecanoyl])LVRGRG [GLP-1 derivative of Example 145: [Aib8,Lys18,Glu22,Val25,Arg26,Lys31,Arg34]-GLP-1-(7-37)-peptide] | > 1 | < 1 µM
HXEGTFTSDVSKYLEGQAAKEFIAWLVRGRG (Aib8; Lys18 and Lys26 each Nε-acylated with 10-(4-carboxyphenoxy)decanoyl-OEG-OEG-gGlu) [GLP-1 derivative of Example 115: [Aib8,Lys18,Arg34]-GLP-1-(7-37)-peptide] | > 1 | < 1 µM
H[Aib]EGTFTSDVSK([AEEA-γGlu-AEEA-C16 diacid])YLEEQAVREFIAK([AEEA-γGlu-AEEA-C16 diacid])LVRGRG [GLP-1 derivative of Example 146: [Aib8,Lys18,Glu22,Val25,Arg26,Lys31,Arg34]-GLP-1-(7-37)-peptide] | > 1 | < 1 µM
H[Aib]EGTFTSDVSK([AEEA-AEEA-γGlu-13‑carboxytridecanoyl])YLEGQAVREFIAK([AEEA-AEEA-γGlu-13‑carboxytridecanoyl])LVRGRG [GLP-1 derivative of Example 112: [Aib8,Lys18,Val25,Arg26,Lys31,Arg34]-GLP-1-(7-37)-peptide] | > 1 | < 1 µM
HXEGTFTSDVSKYLEGQAAKEFIAWLVRGRG (Aib8; Lys18 and Lys26 each Nε-acylated with 11-carboxyundecanoyl-gGlu-gGlu-OEG-OEG) [GLP-1 derivative of Example 108: [Aib8,Lys18,Arg34]-GLP-1-(7-37)-peptide] | > 1 | < 1 µM
H[Aib]EGTFTSDVSK([AEEA-AEEA-AEEA-AEEA-γGlu-13‑carboxytridecanoyl])YLEEQAVREFIAK([AEEA-AEEA-AEEA-AEEA-γGlu-13‑carboxytridecanoyl])LVRGRG [GLP-1 derivative of Example 130: [Aib8,Lys18,Glu22,Val25,Arg26,Lys31,Arg34]-GLP-1-(7-37)-peptide] | > 1 | < 1 µM
H[Aib]EGTFTSDVSK([AEEA-AEEA-γGlu-Decanoyl(10-(4-HOOC-PhO))])YLEGQAAK([AEEA-AEEA-γGlu-Decanoyl(10-(4-HOOC-PhO))])EFIAWLVHGRG [GLP-1 derivative of Example 142: [Aib8,Lys18,His34]-GLP-1-(7-37)-peptide] | > 1 | < 1 µM
H[Aib]EGTLTSDVSK([AEEA-AEEA-γGlu-Decanoyl(10-(4-HOOC-PhO))])YLEGQAAK([AEEA-AEEA-γGlu-Decanoyl(10-(4-HOOC-PhO))])EFIAWLVQGRG [GLP-1 derivative of Example 139: [Aib8,Leu12,Lys18,Gln34]-GLP-1-(7-37)-peptide] | > 1 | < 1 µM
H[Aib]EGTFTSDVSK([AEEA-AEEA-γGlu-13‑carboxytridecanoyl])YLEGQAAK([AEEA-AEEA-γGlu-13‑carboxytridecanoyl])EFIAWLVQGRG [GLP-1 derivative of Example 141: [Aib8,Lys18,Gln34]-GLP-1-(7-37)-peptide] | > 1 | < 1 µM
H[Aib]EGTFTSDVSKYLEEQAVREFIAKLVRGRG (not fully specified (residues 12, 25)) [GLP-1 derivative of Example 137: [Aib8,Lys18,Glu22,Val25,Arg26,Lys31,Arg34]-GLP-1-(7-37)-peptide] | > 1 | < 1 µM
H[Aib]EGTFTSDVSK([AEEA-AEEA-AEEA-AEEA-AEEA-AEEA-γGlu-13‑carboxytridecanoyl])YLEEQAVREFIAK([AEEA-AEEA-AEEA-AEEA-AEEA-AEEA-γGlu-13‑carboxytridecanoyl])LVRGRG [GLP-1 derivative of Example 144: [Aib8,Lys18,Glu22,Val25,Arg26,Lys31,Arg34]-GLP-1-(7-37)-peptide] | > 1 | < 1 µM
HXEGTFTSDVSKYLEGQAAKEFIAWLVRGRG (Aib8; Lys18 and Lys26 each Nε-acylated with 13-carboxytridecanoyl-gGlu-gGlu-OEG-OEG) [GLP-1 derivative of Example 103: [Aib8,Lys18,Arg34]-GLP-1-(7-37)-peptide] | > 1 | < 1 µM
H[Aib]EGTFTSDVSK([AEEA-AEEA-AEEA-AEEA-AEEA-AEEA-γGlu-13‑carboxytridecanoyl])YLEEQAVREFIAK([AEEA-AEEA-AEEA-AEEA-AEEA-AEEA-γGlu-13‑carboxytridecanoyl])LVRGRG [GLP-1 derivative of Example 131: [Aib8,Lys18,Glu22,Val25,Arg26,Lys31,Arg34]-GLP-1-(7-37)-peptide] | > 1 | < 1 µM
H[Aib]EGTFTSDVSK([AEEA-AEEA-γGlu-γGlu-C16 diacid])YLEEQAVREFIAK([AEEA-AEEA-γGlu-γGlu-C16 diacid])LVRGRG [GLP-1 derivative of Example 134: [Aib8,Lys18,Glu22,Val25,Arg26,Lys31,Arg34]-GLP-1-(7-37)-peptide] | > 1 | < 1 µM
H[Aib]EGTFTSDVSK([AEEA-AEEA-γGlu-13‑carboxytridecanoyl])YLEEQAAK([AEEA-AEEA-γGlu-13‑carboxytridecanoyl])EFIAWLVRGRG [GLP-1 derivative of Example 100: [Aib8,Lys18,Glu22,Arg34]-GLP-1-(7-37)-peptide] | > 1 | < 1 µM
HXEGTFTSDVSKYLEGQAAKEFIAWLVRGRG (Aib8; Lys18 and Lys26 each Nε-acylated with 10-(4-carboxyphenoxy)decanoyl-gGlu-OEG-OEG) [GLP-1 derivative of Example 93: [Aib8,Lys18,Arg34]-GLP-1-(7-37)-peptide] | > 1 | < 1 µM
H[Aib]EGTFTSDVSK([AEEA-AEEA-d(γGlu)-γGlu-13‑carboxytridecanoyl])YLEEQAAK([AEEA-AEEA-d(γGlu)-γGlu-13‑carboxytridecanoyl])EFIAWLVQGRG [GLP-1 derivative of Example 105: [Aib8,Lys18,Glu22,Gln34]-GLP-1-(7-37)-peptide] | > 1 | < 1 µM
HAEGTFTSDVSK([AEEA-AEEA-γGlu-13‑carboxytridecanoyl])YLEEQAVREFIAK([AEEA-AEEA-γGlu-13‑carboxytridecanoyl])LVG [GLP-1 derivative of Example 10: [Lys18,Glu22,Val25,Arg26,Lys31,Gly34]-GLP-1-(7-34)-peptide] | > 1 | < 1 µM
HAEGTFTSDVSK([γGlu-AEEA-AEEA-13‑carboxytridecanoyl])YLEEQAARK([γGlu-AEEA-AEEA-13‑carboxytridecanoyl])FIAHLVG [GLP-1 derivative of Example 29: [Lys18,Glu22,Arg26,Lys27,His31,Gly34]-GLP-1-(7-34)-peptide] | > 1 | < 1 µM
HAEGTFTSDVSK([AEEA-AEEA-γGlu-Decanoyl(10-(4-HOOC-PhO))])YLEEQAARK([AEEA-AEEA-γGlu-Decanoyl(10-(4-HOOC-PhO))])FIAHLVG [GLP-1 derivative of Example 30: [Lys18,Glu22,Arg26,Lys27,His31,Gly34]-GLP-1-(7-34)-peptide] | > 1 | < 1 µM
HSEGTFTSDVSK([AEEA-AEEA-γGlu-C12 diacid])YLEEQAVREFIAK([AEEA-AEEA-γGlu-C12 diacid])LVG [GLP-1 derivative of Example 25: [Ser8,Lys18,Glu22,Val25,Arg26,Lys31,Gly34]-GLP-1-(7-34)-peptide] | > 1 | < 1 µM
HAEGTFTSDVSK([AEEA-AEEA-13‑carboxytridecanoyl])YLEEQAARK([AEEA-AEEA-13‑carboxytridecanoyl])FIAHLVG [GLP-1 derivative of Example 28: [Lys18,Glu22,Arg26,Lys27,His31,Gly34]-GLP-1-(7-34)-peptide] | > 1 | < 1 µM
HSEGTFTSDVSK([AEEA-AEEA-γGlu-13‑carboxytridecanoyl])YLEEQAVREFIAK([AEEA-AEEA-γGlu-13‑carboxytridecanoyl])LVG [GLP-1 derivative of Example 14: [Ser8,Lys18,Glu22,Val25,Arg26,Lys31,Gly34]-GLP-1-(7-34)-peptide] | > 1 | < 1 µM
HAEGTFTSDVSK([AEEA-AEEA-γGlu-13‑carboxytridecanoyl])YLEEQAAREFIAK([AEEA-AEEA-γGlu-13‑carboxytridecanoyl])LVG (Name prints Lys8, evidently Lys18 (acylation at Nε18)) [GLP-1 derivative of Example 15: [Lys8,Glu22,Arg26,Lys31,Gly34]-GLP-1-(7-34)-peptide] | > 1 | < 1 µM
